The stoichiometry N is the number of molecules, sites or subunits per partner or assembly.

The source of these data is publication PMC3985721.

Common to all, as to test: native MS
For series [1], the target named is human soluble guanylate cyclase α subunit catalytic domain, truncated αGC(466–662) (human) (UniProt Q02108).
The target of series [2] is human soluble guanylate cyclase α subunit catalytic domain, αGC(466–690) (human) (UniProt Q02108).
Series [3] has as its target human soluble guanylate cyclase β subunit catalytic domain, wild type, βGC(407–626) (UniProt Q02153).
UniProt Q02153, sequence (Q02153 whole entry, looked up, the tested form may be a part): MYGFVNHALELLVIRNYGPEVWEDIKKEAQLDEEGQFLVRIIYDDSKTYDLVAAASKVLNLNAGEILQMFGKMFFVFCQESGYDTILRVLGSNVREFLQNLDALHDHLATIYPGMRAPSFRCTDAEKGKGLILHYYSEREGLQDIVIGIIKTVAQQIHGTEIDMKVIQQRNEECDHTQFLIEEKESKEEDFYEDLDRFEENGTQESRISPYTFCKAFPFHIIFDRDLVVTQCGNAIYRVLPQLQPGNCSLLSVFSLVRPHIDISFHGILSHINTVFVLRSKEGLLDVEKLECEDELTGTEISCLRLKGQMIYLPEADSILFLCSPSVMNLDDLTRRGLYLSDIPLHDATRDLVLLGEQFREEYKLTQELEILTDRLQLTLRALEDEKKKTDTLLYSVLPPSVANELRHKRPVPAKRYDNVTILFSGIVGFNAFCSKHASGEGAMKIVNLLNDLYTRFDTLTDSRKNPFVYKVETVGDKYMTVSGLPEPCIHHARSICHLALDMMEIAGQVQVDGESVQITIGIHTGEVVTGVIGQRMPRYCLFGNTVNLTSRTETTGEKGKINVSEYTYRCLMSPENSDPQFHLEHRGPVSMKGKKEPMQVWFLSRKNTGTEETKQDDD

In series [1], “human soluble guanylate cyclase α subunit catalytic domain, truncated αGC(466–662) (from UniProt Q02108 466-662) (domain or fragment)” registered a stoichiometry N of 2. On to “human soluble guanylate cyclase α subunit catalytic domain, αGC(466–690) (from UniProt Q02108 466-690) (domain or fragment)”, for which the stoichiometry N in series [2] was determined as 2. In series [3], “human soluble guanylate cyclase α subunit catalytic domain, shorter construct αGC661 (residues 466–661)” came in with a relative abundance of the heterodimer (%) of 82.5%.
